The values below are quoted from earlier work in patent US20090074843A1, “Use of epi-hne 1-4” (priority 2004, published 2009).

The conditions of data set [1]: chloramineT, up to 50 mol-equivalents.
The target of the next data set is Thrombin (Homo sapiens, UniProt P00734). Particulars: Human Serum Thrombin vs Elastase.
Data set [2] concerns Human Pancreatic Chymotrypsin. Particulars: Human Pancreatic Chymotrypsin vs Elastase.
The target in another data set is Human Plasma Factor Xa (Homo sapiens, UniProt P00742). The conditions noted are these: Human Plasma Factor Xa vs Elastase.
Chain of Human Plasma Factor Xa (P00742 235-488 limits assumed): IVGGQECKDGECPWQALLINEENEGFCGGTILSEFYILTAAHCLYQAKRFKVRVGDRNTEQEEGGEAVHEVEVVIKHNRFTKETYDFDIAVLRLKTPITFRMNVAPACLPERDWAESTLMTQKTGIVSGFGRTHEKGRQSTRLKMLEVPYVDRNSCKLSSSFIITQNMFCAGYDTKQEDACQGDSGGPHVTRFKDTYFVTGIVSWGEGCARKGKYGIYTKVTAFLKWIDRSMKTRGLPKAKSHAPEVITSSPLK
Chain of Human Plasma Factor Xa (P00742 41-179 partner limits assumed): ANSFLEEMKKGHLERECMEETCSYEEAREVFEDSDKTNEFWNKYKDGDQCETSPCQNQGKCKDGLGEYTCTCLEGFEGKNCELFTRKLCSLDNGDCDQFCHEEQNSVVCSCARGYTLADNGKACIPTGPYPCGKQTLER
A further data set concerns the target Human Urine Urokinase (Homo sapiens, UniProt P00749). The conditions noted are these: Human Urine Urokinase vs Elastase.
Another data set has as its target Human Serum Plasmin (Homo sapiens, UniProt P00747). Particulars: Human Serum Plasmin vs Elastase.
Another data set concerns the target Kallikrein (Homo sapiens, UniProt P03952). The conditions noted are these: Human Serum Kallikrein vs Elastase.
Data set [3] concerns the target T1, human neutrophil elastase (Homo sapiens, UniProt P08246).
T1 sequence (P08246 30-267): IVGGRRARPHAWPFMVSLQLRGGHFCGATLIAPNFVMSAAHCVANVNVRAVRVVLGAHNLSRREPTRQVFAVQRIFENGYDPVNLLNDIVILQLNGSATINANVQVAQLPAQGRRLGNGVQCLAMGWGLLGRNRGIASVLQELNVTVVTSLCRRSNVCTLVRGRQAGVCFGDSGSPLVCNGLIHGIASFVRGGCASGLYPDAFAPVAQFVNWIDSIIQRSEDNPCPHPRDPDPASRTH
The conditions noted are these: comparison values.

Chain of Kallikrein (P03952 391-638 limits assumed): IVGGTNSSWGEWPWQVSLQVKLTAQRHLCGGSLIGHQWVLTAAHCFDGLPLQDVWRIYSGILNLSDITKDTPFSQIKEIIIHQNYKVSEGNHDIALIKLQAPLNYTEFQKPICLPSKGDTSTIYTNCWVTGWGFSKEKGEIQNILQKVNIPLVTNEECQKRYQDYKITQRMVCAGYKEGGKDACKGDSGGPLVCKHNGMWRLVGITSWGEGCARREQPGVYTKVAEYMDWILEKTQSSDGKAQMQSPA
Chain of Kallikrein (P03952 20-390 limits assumed): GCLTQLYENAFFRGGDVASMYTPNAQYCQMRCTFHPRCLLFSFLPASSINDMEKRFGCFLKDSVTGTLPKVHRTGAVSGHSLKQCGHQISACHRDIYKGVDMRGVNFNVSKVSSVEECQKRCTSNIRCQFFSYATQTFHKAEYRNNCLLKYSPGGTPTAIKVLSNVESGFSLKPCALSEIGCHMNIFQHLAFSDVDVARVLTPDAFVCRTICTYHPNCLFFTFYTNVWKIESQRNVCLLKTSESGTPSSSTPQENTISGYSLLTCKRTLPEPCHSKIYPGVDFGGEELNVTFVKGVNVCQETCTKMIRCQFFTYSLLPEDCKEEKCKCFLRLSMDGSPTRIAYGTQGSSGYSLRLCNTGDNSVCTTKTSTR
Chain of Human Serum Plasmin (P00747 581-810 limits assumed): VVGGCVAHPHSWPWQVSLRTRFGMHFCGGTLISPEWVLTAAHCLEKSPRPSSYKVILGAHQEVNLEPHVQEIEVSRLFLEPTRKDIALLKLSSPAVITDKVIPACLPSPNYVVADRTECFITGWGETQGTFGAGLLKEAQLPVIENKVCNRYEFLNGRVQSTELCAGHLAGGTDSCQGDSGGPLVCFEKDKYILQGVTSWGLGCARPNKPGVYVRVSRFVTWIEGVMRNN
Chain of Human Serum Plasmin (P00747 98-580 partner limits assumed): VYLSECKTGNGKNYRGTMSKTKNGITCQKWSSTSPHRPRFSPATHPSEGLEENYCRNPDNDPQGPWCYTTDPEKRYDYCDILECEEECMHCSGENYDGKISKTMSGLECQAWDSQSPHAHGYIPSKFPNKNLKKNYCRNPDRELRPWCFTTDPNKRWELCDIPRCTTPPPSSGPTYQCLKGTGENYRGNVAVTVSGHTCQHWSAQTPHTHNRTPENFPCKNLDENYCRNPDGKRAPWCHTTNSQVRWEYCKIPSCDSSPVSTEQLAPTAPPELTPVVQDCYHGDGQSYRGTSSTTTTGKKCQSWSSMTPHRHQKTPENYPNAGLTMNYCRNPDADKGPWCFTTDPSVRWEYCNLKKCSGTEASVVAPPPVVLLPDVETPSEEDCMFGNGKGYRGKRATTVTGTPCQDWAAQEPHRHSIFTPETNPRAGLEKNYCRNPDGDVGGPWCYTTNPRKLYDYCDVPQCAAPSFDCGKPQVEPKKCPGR

Take “AAT: naturally occurring elastase inhibitor, serum protease inhibitor [reference compound]”: in data set [1], the “resistance to oxidation (retention of activity)” value is “destroy the activity”.
“EPI-HNE4: 56 amino acid protein (SEQ ID NO: 1) derived from second Kunitz type domain of human inter-alpha-inhibitor light chain (ITI-D2); elastase inhibitor (EACNLPIVRGPCIAFFPRWAFDAVKGKCVLFPYGGCQGNGNKFYSEKECREYCGVP; P. pastoris; EPI-HNE4 N-terminal modified to facilitate secretion)”: the “selectivity in Ki values” (with Thrombin; in data set [2]; with Human Plasma Factor Xa; with Human Urine Urokinase; in the data set with Human Serum Plasmin; in the data set with Kallikrein) was “more than 10^6” each time.

B1: SLPI: naturally occurring elastase inhibitor, serum protease inhibitor (protein, UniProt P03973 26-132, looked up)
Antileukoproteinase: SGKSFKAGVCPPKKSAQCLRYKKPECQSDWQCPGKKRCCPDTCGIKCLDPVDTPNPTRRKPGKCPVTYGQCLMLNPPNFCEMDGQCKRDLKCCMGMCGKSCVSPVKA
As a reminder, the Kd is a measure of binding affinity in units of concentration. As to B1, in data set [3], the equilibrium dissociation constant (Kd) is 0.1 µM. In addition, the “resistance to oxidation (retention of activity)” value in data set [1] is “destroy the activity”.
